Experimental data: paper PMC5399129

Assays:
[1] = target: MbR E179A (Methanococcoides burtonii); experiment: native gel or EMSA; non-denaturing PAGE (4-15% gel; 25 mM Tris, 0.19 M glycine, pH 8.3) of activated MbR incubated with 1x or 10x molar 2-CABP (relative to active sites) for 1 h at room temperature; step: L2 dimers to higher oligomers up to L10; some 2-CABP-bound samples were then incubated with 20 or 40 mM EDTA for 30 min, which did not pull the higher order complexes apart
[2] = target: Methanococcoides burtonii Rubisco (MbR), wild type, H6-Ub tag cleaved (Methanococcoides burtonii); experiment: crystal structure; MbR activated (10 mM NaHCO3, 10 mM MgCl2) and incubated with a 10-fold molar excess of 2-CABP; hanging drop, room temperature; 2.6 Å; five LSus in the asymmetric unit, L10 by crystallographic symmetry
[3] = target: Methanococcoides burtonii Rubisco (MbR), wild type, H6-Ub tag cleaved (Methanococcoides burtonii); experiment: native gel or EMSA; non-denaturing PAGE of purified, activated MbR incubated without 2-CABP: with 4-CABP or XuBP (1x, 10x molar), 3-PGA (1x, 10x, 1000x molar) or crystallization buffer alone, 1 h at room temperature; step: L2 dimers to higher oligomers
[4] = target: MbR D366A (Methanococcoides burtonii); experiment: native gel or EMSA; non-denaturing PAGE (4-15% gel; 25 mM Tris, 0.19 M glycine, pH 8.3) of activated MbR incubated with 1x or 10x molar 2-CABP (relative to active sites) for 1 h at room temperature; step: L2 dimers to higher oligomers up to L10; some 2-CABP-bound samples were then incubated with 20 or 40 mM EDTA for 30 min, which did not pull the higher order complexes apart
[5] = target: MbR D183A (Methanococcoides burtonii); experiment: as above

With MbR E179A (enzyme) as the substance, how does the stoichiometry N [1] read?
The stoichiometry N was 2.

Which results are given for “Methanococcoides burtonii Rubisco (MbR), wild type, H6-Ub tag cleaved (enzyme)”?
stoichiometry N [2]: 10; stoichiometry N [3]: 2

For MbR D366A (enzyme), which stoichiometry N [4] is on record?
The stoichiometry N was 10.

MbR D183A (enzyme) was tested. Which stoichiometry N [5] did it give?
The stoichiometry N was 10.
